Reference: article PMC7150784

How the values were obtained:
[1] = target: amphibian alpha-1 nAChR orthosteric site mimotope (Xenopus laevis); assay: BLI; Octet RED 96; […] (1 µg/mL) […]; running buffer 1X DPBS with 0.1% BSA and 0.05% Tween-20; […], in triplicate
[2] = target: lizard alpha-1 nAChR orthosteric site mimotope; assay: BLI

## alpha-cobratoxin (from UniProt P01391 1-71) (natural protein)
[1]
  AUC (potency) above that on the lizard mimotope: 50%
  AUC (potency) above that on the rodent mimotope: 98%
[2]
  AUC (potency) above that on the rodent mimotope: 30%
